Source: patent US20230227577A1 (MYTHIC THERAPEUTICS, published 2023)

T1: DLL3 target antigen coated on Octet SA tips (binning experiment) (Homo sapiens (Human), UniProt Q9NYJ7 27-492, Probably biotinylated for capture on streptavidin (SA) tips. The site is not stated.)
T1 sequence: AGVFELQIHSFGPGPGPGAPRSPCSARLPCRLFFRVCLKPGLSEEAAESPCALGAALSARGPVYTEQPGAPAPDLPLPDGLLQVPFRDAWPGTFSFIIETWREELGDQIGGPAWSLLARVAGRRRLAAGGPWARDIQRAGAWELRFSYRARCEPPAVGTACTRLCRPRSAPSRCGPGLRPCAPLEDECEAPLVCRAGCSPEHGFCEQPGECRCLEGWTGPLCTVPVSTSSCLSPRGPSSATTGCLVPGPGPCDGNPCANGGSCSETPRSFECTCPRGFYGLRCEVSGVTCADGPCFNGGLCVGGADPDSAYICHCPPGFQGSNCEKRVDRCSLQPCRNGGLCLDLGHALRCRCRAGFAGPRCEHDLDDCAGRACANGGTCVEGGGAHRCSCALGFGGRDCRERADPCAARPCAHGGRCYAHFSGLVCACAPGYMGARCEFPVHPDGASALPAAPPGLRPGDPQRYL

T2: recombinant human DLL3 protein (human, UniProt Q9NYJ7 27-492, limits assumed)
T2 construct: also called rhu DLL3; human biotinylated DLL3
T2 sequence (looked up): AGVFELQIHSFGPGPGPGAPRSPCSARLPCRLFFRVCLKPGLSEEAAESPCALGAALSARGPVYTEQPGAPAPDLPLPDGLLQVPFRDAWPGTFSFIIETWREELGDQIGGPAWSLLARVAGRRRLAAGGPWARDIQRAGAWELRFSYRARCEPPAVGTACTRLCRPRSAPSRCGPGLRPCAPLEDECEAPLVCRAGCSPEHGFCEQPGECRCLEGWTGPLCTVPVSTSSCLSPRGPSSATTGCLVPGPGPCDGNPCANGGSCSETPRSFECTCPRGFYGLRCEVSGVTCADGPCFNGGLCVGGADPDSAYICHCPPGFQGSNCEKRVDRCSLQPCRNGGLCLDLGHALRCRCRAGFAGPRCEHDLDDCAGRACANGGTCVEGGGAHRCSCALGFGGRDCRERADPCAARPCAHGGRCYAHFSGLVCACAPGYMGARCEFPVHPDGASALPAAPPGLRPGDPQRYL

T3: mouse DLL3 on CHO cells (mouse, UniProt O88516 33-592)
T3 construct: whole, on cells; also called CHO cells expressing mouse DLL3
T3 sequence (looked up): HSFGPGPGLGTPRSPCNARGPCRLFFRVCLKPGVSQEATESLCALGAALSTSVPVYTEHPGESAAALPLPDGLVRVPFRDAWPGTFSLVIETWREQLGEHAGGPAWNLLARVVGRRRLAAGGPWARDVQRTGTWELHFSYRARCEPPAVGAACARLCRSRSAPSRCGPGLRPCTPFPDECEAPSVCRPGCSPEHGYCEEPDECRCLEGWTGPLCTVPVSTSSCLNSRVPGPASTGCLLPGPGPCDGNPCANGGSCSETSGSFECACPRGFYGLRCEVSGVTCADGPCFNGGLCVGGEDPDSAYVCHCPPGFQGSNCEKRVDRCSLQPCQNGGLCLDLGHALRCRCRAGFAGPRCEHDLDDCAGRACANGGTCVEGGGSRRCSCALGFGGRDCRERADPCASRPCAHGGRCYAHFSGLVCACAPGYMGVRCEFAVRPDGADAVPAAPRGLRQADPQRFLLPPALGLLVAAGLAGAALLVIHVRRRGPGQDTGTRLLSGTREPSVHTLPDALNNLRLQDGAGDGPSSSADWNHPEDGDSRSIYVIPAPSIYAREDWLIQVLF

T4: mouse DLL3 protein (mouse, UniProt O88516 33-490, limits assumed)
T4 construct: also called murine DLL3
T4 sequence (looked up): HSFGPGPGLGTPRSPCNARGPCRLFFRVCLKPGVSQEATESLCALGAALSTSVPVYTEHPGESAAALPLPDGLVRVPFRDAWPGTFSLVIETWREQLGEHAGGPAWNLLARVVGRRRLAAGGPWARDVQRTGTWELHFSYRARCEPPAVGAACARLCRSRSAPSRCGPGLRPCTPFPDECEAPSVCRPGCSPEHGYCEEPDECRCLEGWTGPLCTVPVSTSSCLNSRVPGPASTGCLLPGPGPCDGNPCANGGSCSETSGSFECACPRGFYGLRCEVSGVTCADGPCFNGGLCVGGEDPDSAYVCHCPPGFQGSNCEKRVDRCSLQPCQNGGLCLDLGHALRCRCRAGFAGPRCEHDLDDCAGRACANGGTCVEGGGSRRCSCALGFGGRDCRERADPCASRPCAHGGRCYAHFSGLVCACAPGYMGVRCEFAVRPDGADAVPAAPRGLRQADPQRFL

T5: DLL3 (ELISA DLL3)
T5 construct: also called DLL3 protein in ELISA
T5 chain: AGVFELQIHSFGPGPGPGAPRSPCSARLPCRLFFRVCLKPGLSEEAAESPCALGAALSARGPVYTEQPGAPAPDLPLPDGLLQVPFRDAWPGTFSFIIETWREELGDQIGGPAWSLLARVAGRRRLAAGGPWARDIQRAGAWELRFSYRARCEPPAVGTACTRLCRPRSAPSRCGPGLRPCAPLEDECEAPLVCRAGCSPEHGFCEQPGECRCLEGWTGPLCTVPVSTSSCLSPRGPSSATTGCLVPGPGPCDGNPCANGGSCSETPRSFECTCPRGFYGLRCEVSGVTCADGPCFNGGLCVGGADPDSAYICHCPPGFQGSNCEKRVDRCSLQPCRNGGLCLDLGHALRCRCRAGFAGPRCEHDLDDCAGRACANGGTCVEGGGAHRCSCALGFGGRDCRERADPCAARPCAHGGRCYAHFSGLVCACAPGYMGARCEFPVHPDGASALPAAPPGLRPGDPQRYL


Assays:
[1] = molecular target: T1, DLL3 target antigen coated on Octet SA …; experiment: Octet binning on DLL3-coated SA tips; competitor: 3HCE87
Method: (§1) Antibody binning experiments were carried out for 5 anti-DLL3 VHHs and an anti-human DLL3 BiTE (SEQ ID NO: 756). The target antigen was coated on a series of Octet SA tips. Each series of tips was first soaked in a periplasmic extract containing one specific VHH. After the response signals reached saturation, the tips were transferred to a mix of PEs containing again the first VHH (at the same concentration) plus a different VHH (termed secondary VHH) for each tip of the series. Secondary VHH that still bind the target antigen in the presence of the first VHH will show an increased response, as compared to the binding response of the first VHH alone. This was repeated for each VHH as primary VHH until all VHH were tested against each other in both directions (as primary and as secondary binder). From the response data, the bins were deduced for each VHH. 2HCE117 and 3HCE4 show competition with the human DLL3 BiTEs, whereas 3HCE56 and 3HCE87 show a partial competition.

[2] = molecular target: T2, recombinant human DLL3 protein; experiment: Fortebio Octet Red, DLL3 immobilised on tips, dilution series of the VHH, 1:1 binding model; KD error 7.00E-11; Full R2 0.9522
Method: (§2) Additional experiments were carried out to further characterize the binding properties of the anti-DLL3 constructs. Binding properties tested include dissociation constant (KD), off-rate (koff), binding to DLL3 protein by ELISA and binding to CHO cells expressing human, cyno or mouse DLL3. To obtain off-rate (koff), human biotinylated DLL3 was immobilized on Octet SA tips, and cynomolgus or mouse DLL3 was immobilized on Octet AR2G tips. For each DLL3 protein, the binding to a dilution series of each anti-DLL3 construct was measured using Fortebio Octet Red. The dissociation constant (KD), off-rate (koff) and other kinetic parameters for each anti-DLL3 construct were calculated using a 1:1 binding model. In addition, binding of these anti-DLL3 constructs to CHO cells expressing human, cyno or mouse DLL3 protein was analyzed using flow cytometry (FACS).

[3] = molecular target: T2, recombinant human DLL3 protein; experiment: Fortebio Octet Red, DLL3 immobilised on tips, dilution series of the VHH, 1:1 binding model; kon error 2.27E+03; Full R2 0.9522
Method: as §2

[4] = molecular target: T1, DLL3 target antigen coated on Octet SA …; experiment: Octet binning on DLL3-coated SA tips; competitor: DLL3 BiTEs
Method: as §1

[5] = molecular target: T1, DLL3 target antigen coated on Octet SA …; experiment: Octet binning on DLL3-coated SA tips; competitor: 3HCE4
Method: as §1

mouse DLL3 on CHO cells = molecular target: T3, mouse DLL3 on CHO cells; experiment: flow cytometry (FACS) on CHO cells expressing mouse DLL3
Method: as §2

[6] = molecular target: T1, DLL3 target antigen coated on Octet SA …; experiment: Octet binning on DLL3-coated SA tips; competitor: 2HCE117
Method: as §1

[7] = molecular target: T1, DLL3 target antigen coated on Octet SA …; experiment: Octet binning on DLL3-coated SA tips; competitor: 2HCE27
Method: as §1

[8] = molecular target: T1, DLL3 target antigen coated on Octet SA …; experiment: Octet binning on DLL3-coated SA tips; competitor: 3HCE56
Method: as §1

mouse DLL3 protein = molecular target: T4, mouse DLL3 protein; experiment: Octet (DLL3 on AR2G tips), ELISA and FACS; values only in FIG. 3
DLL3 (ELISA DLL3) = molecular target: T5, DLL3 (ELISA DLL3); experiment: ELISA, ratio of the signal on DLL3 to the signal on the control
[9] = molecular target: T2, recombinant human DLL3 protein; experiment: Fortebio Octet Red, DLL3 immobilised on tips, dilution series of the VHH, 1:1 binding model; koff error 5.76E-06; Full R2 0.9522
Method: as §2

[10] = molecular target: T2, recombinant human DLL3 protein; experiment: Fortebio Octet Red, DLL3 immobilised on tips, dilution series of the VHH, 1:1 binding model; koff error 2.95E-06; Full R2 0.9111
Method: as §2

[11] = molecular target: T2, recombinant human DLL3 protein; experiment: Fortebio Octet Red, DLL3 immobilised on tips, dilution series of the VHH, 1:1 binding model; kon error 7.26E+01; Full R2 0.9111
Method: as §2

[12] = molecular target: T2, recombinant human DLL3 protein; experiment: Fortebio Octet Red, DLL3 immobilised on tips, dilution series of the VHH, 1:1 binding model; KD error 1.32E-09; Full R2 0.9111
Method: as §2

[13] = molecular target: T2, recombinant human DLL3 protein; experiment: Fortebio Octet Red, DLL3 immobilised on tips, dilution series of the VHH, 1:1 binding model; kon error 9.86E+02; Full R2 0.9955
Method: as §2

[14] = molecular target: T2, recombinant human DLL3 protein; experiment: Fortebio Octet Red, DLL3 immobilised on tips, dilution series of the VHH, 1:1 binding model; KD error 2.22E-11; Full R2 0.9955
Method: as §2

[15] = molecular target: T2, recombinant human DLL3 protein; experiment: Fortebio Octet Red, DLL3 immobilised on tips, dilution series of the VHH, 1:1 binding model; koff error 2.13E-06; Full R2 0.9955
Method: as §2

Binder | binning response (unit not given) [1] | Kd [2] [nM] | kon [3] [M⁻¹ s⁻¹] | binning response (unit not given) [4] | binning response (unit not given) [5] | binding result (mouse DLL3 on CHO cells) | binning response (unit not given) [6] | binning response (unit not given) [7] | binning response (unit not given) [8] | binding result (mouse DLL3 protein) | DLL3 / control (DLL3 (ELISA DLL3)) | koff [9] [s⁻¹] | koff [10] [s⁻¹] | kon [11] [M⁻¹ s⁻¹] | Kd [12] [nM] | kon [13] [M⁻¹ s⁻¹] | Kd [14] [nM] | koff [15] [s⁻¹]
3HCE87 anti-DLL3 VHH (VHH, In the binning assay it was used as a periplasmic extract) VHH: QVQLQESGGGLVQAGGSLRLSCAASGFIFDDYIIGWFRQAPGKEREFVAAISWSGSATAYADSVKGRFTISRDNAKNTLYLQMNTLKPEDTAVYYCAASSRGPYNSGSSYDYWGQGTQVTVSS | 0 | 5.35 | 192000 | 68.3 | -54.4 | binds | 1210 | -48.2 | 204 | binds | 18.8 | 0.00103 |  |  |  |  |  | 
anti-human DLL3 BiTE (bispecific antibody, also called DLL3 BiTEs) QVQLQESGPGLVKPSETLSLTCTVSGGSISSYYWSWIRQPPGKGLEWIGYVYYSGTTNYNPSLKSRVTISVDTSKNQFSLKLSSVTAADTAVYYCASIAVTGFYFDYWGQGTLVTVSSGGGGSGGGGSGGGGSEIVLTQSPGTLSLSPGERVTLSCRASQRVNNNYLAWYQQRPGQAPRLLIYGASSRATGIPDRFSGSGSGTDFTLTISRLEPEDFAVYYCQQYDRSPLTFGGGTKLEIK | 125 |  |  | 0 | 121 |  | 1280 | 82.5 | 1500 |  |  |  |  |  |  |  |  | 
2HCE117 anti-DLL3 VHH (VHH, In the binning assay it was used as a periplasmic extract) VHH: QVQLQESGGGLVQPGGSLRLSCAASGFTFSSYAMSWVRQAPGKGLEWVSDINSGGGSTYYADSVKGRFTISRDNAKNTLYLQMDSLKPEDTAVYYCATPFEIGSWGQGTQVTVSS | -98.7 |  |  | -23.2 | -90.1 | binds | 0 | -73 | -207 | binds | 29.4 |  | 0.0006 | 5960 | 101 |  |  | 
3HCE4 anti-DLL3 VHH (VHH, In the binning assay it was used as a periplasmic extract) VHH: QVQLQESGGGLVQAGASLKLSCAVSGRAGSSYDMGWLRQAPGKEREFVAIITWSGNTAYKDSVKGRFIISRDNAKNTVYLEMNSLAPEDTAVYYCAAALSEKKYEYWGQGTQVTVSS | 120 |  |  | 9.03 | 0 | binds | 3510 | 347 | 407 | binds | 65.7 |  |  |  |  | 249000 | 5.15 | 0.00128
